Assay [1] has as its target human BAFF (UniProt Q9Y275). The experiment in a line: competitive SPR; elute 1; interaction observed, curve not fitted adequately.
Assay [2] deals with TRX-APRIL (mouse) (UniProt Q9D777). Briefly: competitive SPR; elute 2.
Assay [3] concerns the target human BAFF (UniProt Q9Y275). Briefly: competitive SPR; elute 2; interaction observed, curve not fitted adequately.
Assay [4] concerns the target TRX-APRIL (mouse) (UniProt Q9D777). Briefly: competitive SPR; elute 1.
Assay [5] has as its target human BAFF (UniProt Q9Y275). Briefly: competitive SPR; elute 2.
Assay [6] concerns the target human BAFF (UniProt Q9Y275). The experiment in a line: competitive SPR; elute 1.

pIC50: −log10 of the molar value.

human BAFF, sequence (Q9Y275 82-285): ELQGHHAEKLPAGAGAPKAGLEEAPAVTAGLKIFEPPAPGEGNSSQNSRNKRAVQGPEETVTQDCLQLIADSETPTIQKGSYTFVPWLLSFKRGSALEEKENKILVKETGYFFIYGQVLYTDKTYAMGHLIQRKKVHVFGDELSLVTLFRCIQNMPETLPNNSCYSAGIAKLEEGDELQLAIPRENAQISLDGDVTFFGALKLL
TRX-APRIL (mouse), sequence (Q9D777 104-241): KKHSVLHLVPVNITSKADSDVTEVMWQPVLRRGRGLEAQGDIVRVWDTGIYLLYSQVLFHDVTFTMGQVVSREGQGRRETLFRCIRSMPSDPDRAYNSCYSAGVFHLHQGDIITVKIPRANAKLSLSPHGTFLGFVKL
TACI_d1 (first CRD of TACI, residues 32-67), sequence (O14836 32-67): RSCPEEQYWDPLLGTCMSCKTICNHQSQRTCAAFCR

What is called pIC50 is the negative decadic logarithm of the IC50, by convention in mol/L. A lower pIC50 goes with a high IC50. Take “TACI_d1 (first CRD of TACI, residues 32-67)”: the pIC50 in the assay with human BAFF [1] was < 7.00; with TRX-APRIL (mouse) [2] it was 6.00; with human BAFF [3], < 7.00; with TRX-APRIL (mouse) [4] it was 5.52.
Turning to “hTACI CRD1 LS (human TACI CRD1 R32-R67 with NHQSQRT replaced by GQHPKQ of CRD2)”, the pIC50 with human BAFF [5] was 7.64; in the assay with TRX-APRIL (mouse) [2] it was 6.89; with human BAFF [6], 8.22; with TRX-APRIL (mouse) [4], 7.92.

These data come from US20080181886A1, “Polypeptides That Bind Baff And/Or April” (Genentech, Inc., priority 2004, published 2008).
